Assay: soluble on expression in E. coli; label from the status in PepcDB or PDB records

Which “soluble on expression in E. coli” value does the source give for “SNADDYTAGKEYVELSSPVPVSQPGKIEVVELFWYGCPHCYAFEPTIVPWSEKLPADVHFVRLPALFGGIWNVHGQMFLTLESMGVEHDVHNAVFEAIHKEHKKLATPEEMADFLAGKGVDKEKFLSTYNSFAIKGQMEKAKKLAMAYQVTGVPTMVVNGKYRFDIGSAGGPEETLKLADYLIEKERAAAKK” here?
Its value is “soluble”.

For “MQCLQFDSINLIEHILPDVRFWLVPPSRTHHLHEHFHHISWQTEAIPQTESKPDKPWFALPQTSERQKPEHILVIGAGISGAATAHALASHGISVTVLEARKAAQAASGNRQGLLYAKISPHDTEQTELLLAGYGYTKRLLGHILPESETWGGNGIIHLNYSRTEQQRNHELGLQKHHNHLYRSITSAEAEKIAGIPLSVPYDHPSCGLYWQHGVWLNPPAFVRTLLNHPLIGLHEDTPLTDISHDGEKWIASTPNGTFTATHIIYCTGANSPYLPETNLAALPLRQIRGQTGLTPSTPFSEQLRCAVSGESYISPSWHGLHCYGASFIPNSSHTGWNEAEEASNRQALAHLNPALSESLFAANPNPQKHQGHAAIRCDSPDHLPLVGALGDIAAMRQTYTKLALDKNYRIDTPCPYLPNAYVNTAHGTRGLATAPICAAAIAAQILGLPHPFSQRLRHALHPNRTIIRAIVRRKDLTPLEHHHHHH”, which “soluble on expression in E. coli” value is on record?
The value was “not soluble”.

For “MDITELLAFSAKQGASDLHLSAGLPPMIRVDGDVRRINLPPLEHKQVHALIYDIMNDKQRKDFEEFLETDFSFEVPGVARFRVNAFNQNRGAGAVFRTIPSKVLTMEELGMGEVFKRVSDVPRGLVLVTGPTGSGKSTTLAAMLDYLNNTKYHHILTIEDPIEFVHESKKCLVNQREVHRDTLGFSEALRSALREDPDIILVGEMRDLETIRLALTAAETGHLVFGTLHTTSAAKTIDRVVDVFPAEEKAMVRSMLSESLQSVISQTLIKKIGGGRVAAHEIMIGTPAIRNLIREDKVAQMYSAIQTGGSLGMQTLDMCLKGLVAKGLISRENAREKAKIPENFGAAALEHHHHHH”, which “soluble on expression in E. coli” value is on record?
The value was “soluble”.

With “TELTKCKVSHAIKDIDGYQGISLLEWACVLFHTSGYDTQAVVNDNGSTEYGLFQISDRFWCKSSEFPESENICGISCDKLLDDELDDDIACAKKILAIKGIDYWKAYKPMCSEKLEQWRCEKP” as the sequence, how does the “soluble on expression in E. coli” value read?
Its value is “soluble”.

For “MSLFTCEDPAVWKAVHNKYWTVVEAKSAGKRKTSGKLLQLDKWFQEDLPAAITARPERFLTHAELVKIMEWKLTKGKFRPRLQQLIGSNNEEAVQSSSSKAFSLLPDVQAAIKELCKLKGVGSATASAVLVAGAPDKVAFMADEAVESIAELRPVEYTDKHYALYLQKMLWKTSELNKVDAQQDWTPHRVEQCLWTWTVANQIQPSLLQGVSLKDATNQKPEKRKTADEKPSKRKKTE”, which “soluble on expression in E. coli” value is on record?
Its value is “not soluble”.

For “MGSDKIHHHHHHMKSKGSRLSTDCPVEFPKIVSGFAEEVKIRRQSSQGQYAVDSHPPKSPELKHRRQRSSSFVNGKCRNRDLPLLDNKKAQEINTNSHGQDIGIKNLPRQRELLNAKNGIDFTLMVAGQSGLGKTTFINSLFSTSLIDDDIKENKPIIRYKSIVEGDGTHLNFNVIDTPGFGNNMDNAFTWRTMVNYIDEEIRSYIFQEEQPDRTKMVDNRVHCCLYFLRPSNKGIDTLDVVTMKKLAKRVNLIPVIAKSDLLTKEELKNFKTQVREIIRVQDIPVCFFFGDEVLNATQDIFQKYPFSIIASNEYIFNEKGEKVKGRQYKWGAVDIENEKYCDFKILQKTIFDWNLIDLVESTEDYYEKCRSEMLRTRLLKARDCLTTKSVDITEEQRKFLEEEMNFDEIEENKLKNYKCYEIINKTVMDKVATEWDPEFITRQLEAKKKFNELSNREISKFRDWKKSLFMEQENFNQEIEQLNHKLENLQLECQDLEYKLLIGKSSNSHSTDSATLVNVHIKR”, which “soluble on expression in E. coli” value is on record?
Its value is “not soluble”.

For “MLGLPPELGLRTYSARLLGSNPKLVLHGGGNTSVKLNINDLFGNPVQVMCIKGSGQDLATITASGHPAVRLAPLQQLKVLDHLSDEDMVNILRTNLLDCRAPTPSVEALLHAFVDRPVIDHTHAVAAMVIADQPDGDRLCRYIYGERVLWIPYVMSGFALSLAVERAFRAYPDAEGMLLGKHGLCTFGESAKASYERMITFVTLAENFIESRRAIYSPLEHHHHHH”, which “soluble on expression in E. coli” value is on record?
The value was “not soluble”.

For “MEYRITGKGVEISEAIKNYLEKRLDKIDRVIYDDDLVSFNVRIEKDGKNQYVVKFNMNLKGNIINVEERHPDIYTAIDFASDALEKQVKRLKERLKNHPHRSSALVETPLEEPGEFSPSDKVSSVKRVSLLNLDLDEAVMQMDELNHRFLVFRNVNTGEINLLYRDENGDIHLIEMAE”, which “soluble on expression in E. coli” value is on record?
Its value is “not soluble”.

With “GMDAGRGAEHDEAVTSDDSASVEVPRRATPADAATVAQMLHDFNTEFGAPTPGTDELASRLSHLLAGEDVVVLLAGEPPTGLAVLSFRPNVWYPGPVAILDELYVRPGRRGHRLGSALLAASCGLVRSRGGALLEINVDGEDTDARRFYEARGFTNTEPNGTEPMLYYYREL” as the sequence, how does the “soluble on expression in E. coli” value read?
The value was “soluble”.

With “MAWYEGAFFYQIFPDRFFRAGPPGRPAPAGPFEPWEAPPTLRGFKGGTLWGVAEKLPYLLDLGVEAIYLNPVFASTANHRYHTVDYFQVDPILGGNEALRHLLEVAHAHGVRVILDGVFNHTGRGFFAFQHLMENGEQSPYRDWYHVKGFPLKAYTAHPNYEAWWGNPELPKLKVETPAVREYLLAVAEHWIRFGVDGWRLDVPNEIPDPTFWREFRQRVKGANPEAYIVGEIWEEADFWLQGDMFDAVMNYPLARAVLGFVGGEALDRDLAAQTGLGRIEPLQALAFSHRLEDLFGRYRPEVVRAQMNLLTSHDTPRLLSLMRGSVERARLALALLFLLPGNPTVYYGEEVGMAGGKDPENRGGMVWEEARWQKDLRETVKRLARLRKEHPALRTAPYLRIYAQDGHLAFARGPYLAVVNASPHPFRQDFPLHGVFPRGGRAVDLLSGEVCTPQGGRLCGPVLPPFSLALWREA” as the sequence, how does the “soluble on expression in E. coli” value read?
The value was “soluble”.

For “MLKGGEDVVQGTHVRELTPEWVARAVGGRLHPGGGPVRDLVWHSGAATPGSLFAVLPGRTTHGRHFIPEALARGASLVLADQAGPATLEVEDPWQALLRLGEALRRLFPGPVLAVGGSSGKTTTKEALAQGLGLPAPPGNLNTAPPLVRFFWHLDPQSPGAVVELGVDRQGEMAELFALAKPHLAVLTALGEEHLEAFGTLEKAVQEEAHLLRAPTALVGEQAAPLVLGLREDLLVYGFAEGTFRGRDLELGLRESRFRYGGLHVRVPYPGLGPAYGALAALAAAEVLGLSLEEVAERLARLTLPPGRMETREVGGVVFVNDAYNANPLSVKAGLRWLAAQPGRKWAVLGEMRELGRESLRLHLEVAEEAARLGLSPLYLGPHARHQAAFSGEAVESLEEALAWLKARVAPGDLVYLKASRAVGLERIVELWDAPFSS”, which “soluble on expression in E. coli” value is on record?
Its value is “soluble”.

For “MLTWSTSATSSKPTLRGKIPNSKAAEEFLDSWDNAVFDGKSTGDPELDREASLWRDKFPHLRITGSRFESQKVTHPIPVDSLSFQKSIIQHSKSANAIREKLPKIDNFKKK”, which “soluble on expression in E. coli” value is on record?
The value was “not soluble”.

With “MSLGDVVMNERELILAIETSCDETSAAVIENGTTILSNVVSSQIDSHKRFGGVVPEIASRHHVEQITVIVEEAMHEAGVDFADLAAVAVTEGPGLVGALLIGVNAAKAIAFAHQLPLIGVHHIAGHIYANRLLKELEFPLLALVVSGGHTELIYMENHGEFEVIGETRDDAVGEAYDKVARTLGLPYPGGPHIDRLAVNGEDTLQFPRAWLEPDSFDFSFSGLKSAVINTLHNAKQRGENVQAEDVAASFQASVIDVLVTKTKKAAEEYKVRQVLLAGGVAANKGLRTALEEAFFKEPIDLVIPPLSLCTDNAAMIGAAASIKFKQQTFAGMDLNGQPSLELENDEGHHHHHH” as the sequence, how does the “soluble on expression in E. coli” value read?
The value was “soluble”.

Which “soluble on expression in E. coli” value does the source give for “MSLASVWKRLQRVGKHASKFQFVASYQELMVECTKKWQPDKLVVVWTRRSRRKSSKAHSWQPGIKNPYRGVVVWPVPENIEITVTLFKDPHAEEFEDKEWTFVIENESPSGRRKALATSSINMKQYASPMPTQTDVKLKFKPLSKKVVSATLQFSLSCIFLREGKATDEDMQSLASLMSMKQADIGNLDDFEEDNEDDDENRVNQEEKAAKITEGHHHHHH” here?
Its value is “not soluble”.
